Here are results for 3 molecules from patent US20140087995A1 (published 2014).

Numbered stars: 1 amine (or outer) side, 2 acyl side, 3 side chain; on linkers, the order of the positions; unused ones are H or OH. Bridge positions count the residues as written; N and C are the ends. Side chains are listed from the residue outwards. Ends that are not written are not given here. * marks the point of attachment. C20 diacid = O=C(O)CCCCCCCCCCCCCCCCCCC(=O)*; γGlu = O=C(O)[C@H](CCC(=O)[*:2])N[*:1]

Assay [1] has as its target T1, human amylin receptor (amylin 3(a) receptor: human calcitonin receptor co-expressed with RAMP-3) (human, UniProt P30988 25-474; O60896 24-148, limits assumed).
T1 construct: whole, on cells; Assayed as cell membranes of BHK570 Amylin 3(a)/CRE-luc cells (Assay V); also called hAmylin-R; hAmylinR
T1 sequence (looked up) 1: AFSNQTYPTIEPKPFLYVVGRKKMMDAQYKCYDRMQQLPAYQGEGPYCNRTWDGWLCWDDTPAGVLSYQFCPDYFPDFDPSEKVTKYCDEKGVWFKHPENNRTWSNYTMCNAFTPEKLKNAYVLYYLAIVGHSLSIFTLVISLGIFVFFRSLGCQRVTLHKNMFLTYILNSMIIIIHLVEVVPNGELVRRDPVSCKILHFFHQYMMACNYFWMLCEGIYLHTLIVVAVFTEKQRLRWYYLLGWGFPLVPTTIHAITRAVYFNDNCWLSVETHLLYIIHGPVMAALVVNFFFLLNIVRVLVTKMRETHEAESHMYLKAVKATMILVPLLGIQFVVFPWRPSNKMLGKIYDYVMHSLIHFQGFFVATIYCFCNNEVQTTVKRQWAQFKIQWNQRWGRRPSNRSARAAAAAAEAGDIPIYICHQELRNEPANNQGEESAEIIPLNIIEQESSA
T1 sequence (looked up) 2: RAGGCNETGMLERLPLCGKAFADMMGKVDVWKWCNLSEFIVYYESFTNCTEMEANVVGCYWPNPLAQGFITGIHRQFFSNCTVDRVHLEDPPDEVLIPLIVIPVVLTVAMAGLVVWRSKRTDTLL
As to the kind of experiment: SPA competition vs 125I-rat amylin, membranes of BHK cells with human amylin 3(a) receptor (Assay V). On the procedure: The binding assay was performed using scintillation proximity assay (SPA) beads (RPNQ0001) from PerkinElmer and cell membranes from the Amylin 3(a)/CRE-luc cells (as described in Assay (II)) were used. Membranes were prepared in the following way; the cells were rinsed with PBS and incubated with Versene for approximately 5 min before harvesting. The cells were flushed with PBS and the cell-suspension was centrifuged for 5 min at 1000 rpm. Cells were homogenized (ultrathurrax) in a buffer containing 20 mM Na-HEPES and 10 mM EDTA (pH 7.4) and centrifuged at 20.000 rpm for 15 min. The resulting pellet was resuspended, homogenized and centrifuged (20.000 rpm, 15 min) in a buffer containing 20 mM Na-HEPES and 0.1 mM EDTA (pH 7.4, buffer 2). The resulting pellet was resuspended in buffer 2 and protein concentration was measured (BCA protein Assay, Pierce). The homogenate was kept cold during the whole procedure. The membranes were kept at −80° C. until use. The assay was performed in a 384 well Optiplate (PerkinElmer) in a total volume of 40 ul. Membranes were mixed with SPA beads. Final concentration of membranes 35 ng/μL final and SPA beads was 0.05 mg/well. […] Samples were analyzed on TopCounter™ (Packard). The IC₅₀ was calculated using (one site binding competition analysis) GraphPad Prism5 as a measure of receptor affinity.

The target in assay [2] is T2, human calcitonin receptor (human, UniProt P30988 25-474).
T2 construct: whole, on cells; Assayed as cell membranes of BHK tk'ts 13 cells stably transfected with the human calcitonin receptor (Assay VII); also called hCTR; hCT
T2 sequence (looked up): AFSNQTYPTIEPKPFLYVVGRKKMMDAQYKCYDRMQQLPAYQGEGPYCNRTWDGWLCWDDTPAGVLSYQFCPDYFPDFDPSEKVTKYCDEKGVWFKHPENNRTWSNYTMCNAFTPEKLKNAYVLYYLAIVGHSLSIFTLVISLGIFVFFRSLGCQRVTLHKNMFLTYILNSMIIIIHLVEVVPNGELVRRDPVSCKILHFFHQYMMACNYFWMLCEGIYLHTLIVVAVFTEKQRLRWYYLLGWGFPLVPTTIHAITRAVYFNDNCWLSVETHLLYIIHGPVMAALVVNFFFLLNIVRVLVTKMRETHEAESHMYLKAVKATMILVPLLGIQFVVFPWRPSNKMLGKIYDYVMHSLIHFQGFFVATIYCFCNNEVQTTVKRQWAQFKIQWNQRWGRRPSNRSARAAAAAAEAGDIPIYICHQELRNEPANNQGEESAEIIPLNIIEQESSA
The assay can be described thus: IC50 at hCTR divided by IC50 at hAmylin-R (SPA competition assays V and VII). The method in brief: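 Competition binding by SPA uses membrane preparations (35 ng/μL final) in pH 7.4 Hepes buffer with 1 mM CaCl2 and 5 mM MgCl₂. Incubation lasts 120 min at 25° C, and IC₅₀ comes from one-site fitting.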

Assay [3] addresses T2, human calcitonin receptor. As to the kind of experiment: SPA competition vs 125I-calcitonin, membranes of BHK cells with human calcitonin receptor (Assay VII). The method in brief:
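BHK hCTR membranes 35 ng/μL + SPA beads 0.05 mg/well; buffer 50 mM Hepes pH 7.4, 1 mM CaCl2, 5 mM MgCl₂, 0.1% OA, 0.02% Tween20. 120 min, 25° C., shaking. Scintillation count; IC50 by one-site binding competition.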

Assay [4] has as its target T3, human calcitonin receptor (human, UniProt P30988 25-474).
T3 sequence (looked up): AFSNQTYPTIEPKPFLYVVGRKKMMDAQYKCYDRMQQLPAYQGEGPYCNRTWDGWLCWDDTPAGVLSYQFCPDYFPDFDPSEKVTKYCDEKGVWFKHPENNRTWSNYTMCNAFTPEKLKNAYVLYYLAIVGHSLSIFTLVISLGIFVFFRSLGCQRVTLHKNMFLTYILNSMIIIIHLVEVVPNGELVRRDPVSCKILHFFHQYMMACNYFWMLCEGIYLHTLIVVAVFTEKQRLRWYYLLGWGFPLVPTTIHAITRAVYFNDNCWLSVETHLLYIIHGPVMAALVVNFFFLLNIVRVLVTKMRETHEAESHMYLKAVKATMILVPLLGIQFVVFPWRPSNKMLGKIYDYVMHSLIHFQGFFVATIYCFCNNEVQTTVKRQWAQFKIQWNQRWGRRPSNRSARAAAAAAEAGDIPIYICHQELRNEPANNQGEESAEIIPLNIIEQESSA
The assay can be described thus: cell-based or functional assay.

Assay [5] has as its target T4, human amylin 3(a) receptor (human calcitonin receptor co-expressed with RAMP-3) (human, UniProt P30988 25-474; O60896 24-148, limits assumed).
T4 sequence (looked up) 1: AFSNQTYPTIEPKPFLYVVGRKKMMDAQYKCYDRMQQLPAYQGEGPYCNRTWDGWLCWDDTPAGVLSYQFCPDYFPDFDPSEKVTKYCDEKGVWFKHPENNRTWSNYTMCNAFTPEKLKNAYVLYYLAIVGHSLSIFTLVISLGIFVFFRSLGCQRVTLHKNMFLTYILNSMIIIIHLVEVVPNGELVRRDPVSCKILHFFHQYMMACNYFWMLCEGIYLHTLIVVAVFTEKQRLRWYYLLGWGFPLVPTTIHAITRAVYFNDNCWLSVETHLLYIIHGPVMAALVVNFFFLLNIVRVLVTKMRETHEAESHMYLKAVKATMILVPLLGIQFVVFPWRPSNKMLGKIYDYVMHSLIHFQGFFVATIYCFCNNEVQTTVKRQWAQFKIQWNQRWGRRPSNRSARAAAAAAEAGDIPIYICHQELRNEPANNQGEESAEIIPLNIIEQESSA
T4 sequence (looked up) 2: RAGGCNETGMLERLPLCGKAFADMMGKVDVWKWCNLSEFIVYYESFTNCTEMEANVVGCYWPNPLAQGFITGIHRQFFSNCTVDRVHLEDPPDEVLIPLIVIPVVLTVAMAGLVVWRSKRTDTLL
As to the kind of experiment: cell-based or functional assay.

B1: N^ε1-[(4S)-4-carboxy-4-(19-carboxynonadecanoylamino)butanoyl]-[His14,Arg17,Pro21,Pro27,Pro34]-h-amylin (peptide)
peptide: K([γGlu-C20 diacid])CNTATCATQRLAHFLRHSSPNFGAIPSSTNVGPNTY-NH2
modifications: disulfide 2-7; N-terminus assumed
SMILES: CC[C@H](C)[C@H](NC(=O)[C@H](C)NC(=O)CNC(=O)[C@H](Cc1ccccc1)NC(=O)[C@H](CC(N)=O)NC(=O)[C@@H]1CCCN1C(=O)[C@H](CO)NC(=O)[C@H](CO)NC(=O)[C@H](Cc1c[nH]cn1)NC(=O)[C@H](CCCNC(=N)N)NC(=O)[C@H](CC(C)C)NC(=O)[C@H](Cc1ccccc1)NC(=O)[C@H](Cc1c[nH]cn1)NC(=O)[C@H](C)NC(=O)[C@H](CC(C)C)NC(=O)[C@H](CCCNC(=N)N)NC(=O)[C@H](CCC(N)=O)NC(=O)[C@@H](NC(=O)[C@H](C)NC(=O)[C@@H]1CSSC[C@H](NC(=O)[C@@H](N)CCCCNC(=O)CC[C@H](NC(=O)CCCCCCCCCCCCCCCCCCC(=O)O)C(=O)O)C(=O)N[C@@H](CC(N)=O)C(=O)N[C@@H]([C@@H](C)O)C(=O)N[C@@H](C)C(=O)N[C@@H]([C@@H](C)O)C(=O)N1)[C@@H](C)O)C(=O)N1CCC[C@H]1C(=O)N[C@@H](CO)C(=O)N[C@@H](CO)C(=O)N[C@H](C(=O)N[C@@H](CC(N)=O)C(=O)N[C@H](C(=O)NCC(=O)N1CCC[C@H]1C(=O)N[C@@H](CC(N)=O)C(=O)N[C@H](C(=O)N[C@@H](Cc1ccc(O)cc1)C(N)=O)[C@@H](C)O)C(C)C)[C@@H](C)O
notes: also called compound 67
On to B1, for which the IC50 in assay [1] is 0.09 nM; in assay [3], 4.63 nM. In addition, the “Ratio hCT/hAmylin binding” value in assay [2] was 51.6.

B2: N{-1}-[(4S)-4-carboxy-4-(19-carboxynonadecanoylamino)butanoyl]-Gly[Arg1,His14,Arg17,Pro21,Pro27]-h-amylin (peptide)
peptide: {C20 diacid-γGlu}-GRCNTATCATQRLAHFLRHSSPNFGAIPSSTNVGSNTY-NH2
modifications: disulfide 3-8
SMILES: CC[C@H](C)[C@H](NC(=O)[C@H](C)NC(=O)CNC(=O)[C@H](Cc1ccccc1)NC(=O)[C@H](CC(N)=O)NC(=O)[C@@H]1CCCN1C(=O)[C@H](CO)NC(=O)[C@H](CO)NC(=O)[C@H](Cc1c[nH]cn1)NC(=O)[C@H](CCCNC(=N)N)NC(=O)[C@H](CC(C)C)NC(=O)[C@H](Cc1ccccc1)NC(=O)[C@H](Cc1c[nH]cn1)NC(=O)[C@H](C)NC(=O)[C@H](CC(C)C)NC(=O)[C@H](CCCNC(=N)N)NC(=O)[C@H](CCC(N)=O)NC(=O)[C@@H](NC(=O)[C@H](C)NC(=O)[C@@H]1CSSC[C@H](NC(=O)[C@H](CCCNC(=N)N)NC(=O)CNC(=O)CC[C@H](NC(=O)CCCCCCCCCCCCCCCCCCC(=O)O)C(=O)O)C(=O)N[C@@H](CC(N)=O)C(=O)N[C@@H]([C@@H](C)O)C(=O)N[C@@H](C)C(=O)N[C@@H]([C@@H](C)O)C(=O)N1)[C@@H](C)O)C(=O)N1CCC[C@H]1C(=O)N[C@@H](CO)C(=O)N[C@@H](CO)C(=O)N[C@H](C(=O)N[C@@H](CC(N)=O)C(=O)N[C@H](C(=O)NCC(=O)N[C@@H](CO)C(=O)N[C@@H](CC(N)=O)C(=O)N[C@H](C(=O)N[C@@H](Cc1ccc(O)cc1)C(N)=O)[C@@H](C)O)C(C)C)[C@@H](C)O
notes: also called compound 99
As to B2, the IC50 in assay [1] was 0.348 nM; in assay [3] it was 35 nM. Moreover, in assay [2], the “Ratio hCT/hAmylin binding” value was 100.
On to K([γGlu-γGlu-C20 diacid])CNTATCATQRLAEFLRHSSPNFGAIPSSTNVGPETP-NH2 (disulfide 2-7 (inferred)), for which, in assay [4], the “hCTR funct. EC50 (pM)” value was determined as 102 pM. The “Ratio hCT/hAmylin funct.” value in assay [5] was found to be 0.8.

One may read the IC50 as the concentration that gives 50% inhibition.
